Assay results: the supplement of paper PMC10126150
± gives the standard deviation of the averaged measurements.

What follows are sequences tested on ATP (assay: switch fluorescence ratio, 500 uM ATP over buffer (Cy3 cluster intensity, sum of 5 cycles each) (fold (ratio)); higher = stronger signal-on switching upon ATP binding; sequences stand for … in TCGTCGGCAGCGTCAGATGTGTATAAGAGACAGTTTTTTTTTTTTTTTTTTTTTTTTT…TC). Details: aptamer strand: ATP DNA aptamer (quencher-CACCTGGGGGAGTATTGCGGAGGAAGG + anchor), 100 nM annealed; ATP concentration: 500 uM.
In short: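 Between each of five buffer/ATP cycles, the flow-cell was stripped with NaOH and re-annealed. Each cycle imaged Cy3-labelled switching-strand clusters, annealed to 100 nM quencher-labelled ATP aptamer on a modified Illumina MiSeq flow-cell, first in selection buffer and then after 15 min with 500 uM ATP at 22 °C. The fluorescence ratio is summed target-cycle over summed buffer-cycle Cy3 intensity per cluster, averaged per switch-domain sequence, with clusters outside 100-1000 RFU excluded.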
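Further: ATP exposure 15 min at 22 °C before imaging.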

| Sequence | switch fluorescence ratio |
| --- | --- |
| GGGTGTACCT | 1.039 ± 0.0043 |
| GGGTGTGCAT | 1.04 ± 0.016 |
| GGGTGTGGGG | 0.989 ± 0.046 |
| GGGTGTGGGT | 0.965 ± 0.026 |
| GGGTGTTCCT | 0.989 ± 0.039 |
| GGGTGTTTCT | 1.01 ± 0.028 |
| GGGTTAAAGG | 1 ± 0.015 |
| GGGTTAAGTA | 0.993 ± 0.031 |
| GGGTTAATAC | 1.29 ± 0.069 |
| GGGTTAATGG | 0.986 ± 0.011 |
| GGGTTACAGC | 1 ± 0.026 |
| GGGTTATGTT | 0.977 ± 0.024 |
| GGGTTCATTG | 0.974 ± 0.033 |
| GGGTTCTATG | 1.004 ± 0.0042 |
| GGGTTGAGTG | 0.982 ± 0.028 |
| GGGTTGATGA | 1.012 ± 0.0093 |
| GGGTTGCACG | 0.9936 ± 0.0015 |
| GGGTTGCGGA | 0.966 ± 0.035 |
| GGGTTGCGTA | 1.006 ± 0.0027 |
| GGGTTGGACG | 1.02 ± 0.053 |
| GGGTTGGATG | 0.996 ± 0.025 |
| GGGTTGGGCT | 1 ± 0.03 |
| GGGTTGGTCG | 0.955 ± 0.016 |
| GGGTTGGTGG | 0.992 ± 0.029 |
| GGGTTGGTTT | 1.0207 ± 0.00021 |
| GGGTTGTAAG | 0.986 ± 0.013 |

| Sequence | switch fluorescence ratio |
| --- | --- |
| GGGTTGTCGA | 0.952 ± 0.011 |
| GGGTTTAATG | 0.96 ± 0.016 |
| GGGTTTAGAA | 0.979 ± 0.049 |
| GGGTTTAGAG | 0.9877 ± 0.0093 |
| GGGTTTAGTA | 0.998 ± 0.02 |
| GGGTTTATGG | 0.987 ± 0.056 |
| GGGTTTCAAG | 1.05 ± 0.04 |
| GGGTTTGAA | 0.988 ± 0.021 |
| GGGTTTGACT | 0.998 ± 0.031 |
| GGGTTTGGAA | 0.961 ± 0.027 |
| GGGTTTGGAT | 0.984 ± 0.025 |
| GGGTTTGGTT | 0.976 ± 0.041 |
| GGGTTTGTAT | 0.979 ± 0.046 |
| GGGTTTGTCA | 1.02 ± 0.029 |
| GGGTTTTAAC | 0.9798 ± 0.0034 |
| GGGTTTTAGG | 0.999 ± 0.032 |
| GGGTTTTAGT | 1.01 ± 0.029 |
| GGGTTTTATA | 1.016 ± 0.01 |
| GGGTTTTGCT | 0.955 ± 0.028 |
| GGGTTTTGTG | 1.01 ± 0.022 |
| GGGTTTTTGT | 1.04 ± 0.055 |
| GGTAAAGGGA | 1.01 ± 0.036 |
| GGTAAAGGTT | 0.999 ± 0.034 |
| GGTAACACCA | 1.015 ± 0.0095 |
| GGTAACGTAG | 0.991 ± 0.022 |
| GGTAAGATGG | 0.995 ± 0.032 |

| Sequence | switch fluorescence ratio |
| --- | --- |
| GGTAAGTAGG | 1.03 ± 0.042 |
| GGTAATAAGG | 1.05 ± 0.028 |
| GGTAATGTTT | 1.01 ± 0.014 |
| GGTACAGTTT | 0.975 ± 0.019 |
| GGTACCTTAG | 1.059 ± 0.0087 |
| GGTACCTTTG | 0.9729 ± 0.009 |
| GGTACGTTTT | 1.03 ± 0.024 |
| GGTACTACGG | 1.05 ± 0.017 |
| GGTACTCATC | 1.02 ± 0.052 |
| GGTACTTTGT | 1.03 ± 0.039 |
| GGTAGAAAGG | 1.03 ± 0.093 |
| GGTAGAGGGA | 0.9783 ± 0.0085 |
| GGTAGAGGGT | 0.978 ± 0.066 |
| GGTAGAGGTA | 1.02 ± 0.013 |
| GGTAGATTCG | 0.994 ± 0.027 |
| GGTAGATTGG | 0.961 ± 0.015 |
| GGTAGATTTT | 0.9792 ± 0.003 |
| GGTAGCAGGG | 1.014 ± 0.0097 |
| GGTAGCCTGC | 1.02 ± 0.023 |
| GGTAGCGAAG | 0.97 ± 0.026 |
| GGTAGCTAAG | 1 ± 0.034 |
| GGTAGGCAGG | 1 ± 0.021 |
| GGTAGGGATA | 1.08 ± 0.11 |
| GGTAGGGGGC | 1.01 ± 0.033 |
| GGTAGTATCC | 1.02 ± 0.025 |
| GGTAGTATTT | 0.996 ± 0.028 |

| Sequence | switch fluorescence ratio |
| --- | --- |
| GGTAGTGGCT | 0.993 ± 0.01 |
| GGTAGTGGGC | 1.02 ± 0.034 |
| GGTATACTTA | 1.04 ± 0.0075 |
| GGTATAGGGA | 1.01 ± 0.026 |
| GGTATATCTT | 1.01 ± 0.076 |
| GGTATATTAA | 1.02 ± 0.023 |
| GGTATATTAG | 0.99 ± 0.028 |
| GGTATATTTT | 1.03 ± 0.1 |
| GGTATCAGTT | 1.0006 ± 0.0002 |
| GGTATCGCGG | 1 ± 0.023 |
| GGTATCTGTA | 1 ± 0.023 |
| GGTATGCAGG | 0.985 ± 0.026 |
| GGTATGCGCT | 0.9934 ± 0.0049 |
| GGTATTACGA | 0.989 ± 0.036 |
| GGTATTAGTG | 1.01 ± 0.021 |
| GGTATTATTG | 0.998 ± 0.023 |
| GGTATTTAAA | 0.982 ± 0.029 |
| GGTCAAAGTG | 1.004 ± 0.0058 |
| GGTCAGAAGG | 0.996 ± 0.026 |
| GGTCATAATT | 0.986 ± 0.025 |
| GGTCATGAGG | 0.989 ± 0.023 |
| GGTCATGGGA | 0.99 ± 0.017 |
| GGTCATGTTT | 0.993 ± 0.043 |
| GGTCCGGGGC | 1.01 ± 0.026 |
| GGTCCTCGGG | 1.03 ± 0.03 |
| GGTCCTGGGG | 1.01 ± 0.039 |

| Sequence | switch fluorescence ratio |
| --- | --- |
| GGTCCTTAAT | 0.989 ± 0.025 |
| GGTCCTTAGG | 1 ± 0.021 |
| GGTCCTTGTT | 1.005 ± 0.0018 |
| GGTCGACTTT | 1.0094 ± 0.00072 |
| GGTCGAGCC | 0.983 ± 0.021 |
| GGTCGAGTGG | 0.988 ± 0.0032 |
| GGTCGATGGT | 0.99 ± 0.011 |
| GGTCGCATTC | 1.05 ± 0.047 |
| GGTCGCTACA | 1.01 ± 0.026 |
| GGTCGGCCGG | 1.0178 ± 0.00045 |
| GGTCGGCGGG | 1.03 ± 0.1 |
| GGTCGGCGTC | 1.014 ± 0.0089 |
| GGTCGGGACG | 0.9588 ± 0.0015 |
| GGTCGGGAGA | 0.96 ± 0.039 |
| GGTCGGGGGC | 1.02 ± 0.031 |
| GGTCGGGTAT | 1.01 ± 0.031 |
| GGTCGGGTGC | 0.971 ± 0.047 |
| GGTCGTAAGT | 0.988 ± 0.026 |
| GGTCGTAGAT | 1.01 ± 0.036 |
| GGTCGTTTCG | 1.01 ± 0.018 |
| GGTCTACATG | 0.985 ± 0.0076 |
| GGTCTAGG | 0.992 ± 0.036 |
| GGTCTCTGGA | 1.01 ± 0.06 |
| GGTCTGAGGG | 0.97 ± 0.032 |
| GGTCTGATGG | 0.987 ± 0.035 |
| GGTCTGGGAT | 0.9939 ± 0.0096 |

| Sequence | switch fluorescence ratio |
| --- | --- |
| GGTCTGGGCT | 0.976 ± 0.017 |
| GGTCTGTTAT | 1.04 ± 0.078 |
| GGTCTGTTTG | 0.97 ± 0.025 |
| GGTCTTCATT | 0.963 ± 0.011 |
| GGTGAAAACG | 0.9913 ± 0.0094 |
| GGTGACCGTT | 0.992 ± 0.012 |
| GGTGACTGAG | 1.012 ± 0.009 |
| GGTGAGACTT | 1 ± 0.031 |
| GGTGAGGATG | 0.994 ± 0.018 |
| GGTGAGGCGC | 0.985 ± 0.066 |
| GGTGAGGGAG | 0.9998 ± 0.0044 |
| GGTGAGGGGG | 1 ± 0.068 |
| GGTGAGTGCA | 1.02 ± 0.07 |
| GGTGAGTTGG | 0.977 ± 0.014 |
| GGTGATAATG | 0.982 ± 0.031 |
| GGTGATACGA | 1.07 ± 0.02 |
| GGTGATGTTA | 0.9786 ± 0.0049 |
| GGTGATTTGT | 1 ± 0.03 |
| GGTGATTTTA | 1 ± 0.025 |
| GGTGCACGGT | 0.978 ± 0.051 |
| GGTGCAGACG | 1.03 ± 0.018 |
| GGTGCATATT | 1.06 ± 0.081 |
| GGTGCATGTG | 0.9713 ± 0.0013 |
